Laboratory results as given in article PMC13385800 (2026).

B1: TBLR1-LgBiT wild type [not stated] / SETD5-SmBiT [not stated] (parent complex)
chain 1: MSISSDEVNFLVYRYLQESGFSHSAFTFGIESHISQSNINGALVPPAALISIIQKGLQYVEAEVSINEDGTLFDGRPIESLSLIDAVMPDVVQTRQQAYRDKLAQQQAAAAAAAAAAASQQGSAKNGENTANGEENGAHTIANNHTDMMEVDGDVEIPPNKAVVLRGHESEVFICAWNPVSDLLASGSGDSTARIWNLSENSTSGSTQLVLRHCIREGGQDVPSNKDVTSLDWNSEGTLLATGSYDGFARIWTKDGNLASTLGQHKGPIFALKWNKKGNFILSAGVDKTTIIWDAHTGEAKQQFPFHSAPALDVDWQSNNTFASCSTDMCIHVCKLGQDRPIKTFQGHTNEVNAIKWDPTGNLLASCSDDMTLKIWSMKQDNCVHDLQAHNKEIYTIKWSPTGPGTNNPNANLMLASASFDSTVRLWDVDRGICIHTLTKHQEPVYSVAFSPDGRYLASGSFDKCVHIWNTQTGALVHSYRGTGGIFEVCWNAAGDKVGASASDGSVCVLDLRK
chain 2: MSIAIPLGVTTSDTSYSDMAAGSDPESVEASPAVNEKSVYSTHNYGTTQRHGCRGLPYATIIPRSDLNGLPSPVEERCGDSPNSEGETVPTWCPCGLSQDGFLLNCDKCRGMSRGKVIRLHRRKQDNISGGDSSATESWDEELSPSTVLYTATQHTPTSITLTVRRTKPKKRKKSPEKGRAAPKTKKIKNSPSEAQNLDENTTEGWENRIRLWTDQYEEAFTNQYSADVQNALEQHLHSSKEFVGKPTILDTINKTELACNNTVIGSQMQLQLGRVTRVQKHRKILRAARDLALDTLIIEYRGKVMLRQQFEVNGHFFKKPYPFVLFYSKFNGVEMCVDARTFGNDARFIRRSCTPNAEVRHMIADGMIHLCIYAVSAITKDAEVTIAFDYEYSNCNYKVDCACHKGNRNCPIQKRNPNATELPLLPPPPSLPTIGAETRRRKARRKELEMEQQNEASEENNDQQSQEVPEKVTVSSDHEEVDNPEEKPEEEKEEVIDDQENLAHSRRTREDRKVEAIMHAFENLEKRKKRRDQPLEQSNSDVEITTTTSETPVGEETKTEAPESEVSNSVSNVTIPSTPQSVGVNTRRSSQAGDIAAEKLVPKPPPAKPSRPRPKSRISRYRTSSAQRLKRQKQANAQQAELSQAALEEGGSNSLVTPTEAGSLDSSGENRPLTGSDPTVVSITGSHVNRAASKYPKTKKYLVTEWLNDKAEKQECPVECPLRITTDPTVLATTLNMLPGLIHSPLICTTPKHYIRFGSPFIPERRRRPLLPDGTFSSCKKRWIKQALEEGMTQTSSVPQETRTQHLYQSNENSSSSSICKDNADLLSPLKKWKSRYLMEQNVTKLLRPLSPVTPPPPNSGSKSPQLATPGSSHPGEEECRNGYSLMFSPVTSLTTASRCNTPLQFELCHRKDLDLAKVGYLDSNTNSCADRPSLLNSGHSDLAPHPSLGPTSETGFPSRSGDGHQTLVRNSDQAFRTEFNLMYAYSPLNAMPRADGLYRGSPLVGDRKPLHLDGGYCSPAEGFSSRYEHGLMKDLSRGSLSPGGERACEGVPSAPQNPPQRKKVSLLEYRKRKQEAKENSAGGGGDSAQSKSKSAGAGQGSSNSVSDTGAHGVQGSSARTPSSPHKKFSPSHSSMSHLEAVSPSDSRGTSSSHCRPQENISSRWMVPTSVERLREGGSIPKVLRSSVRVAQKGEPSPTWESNITEKDSDPADGEGPETLSSALSKGATVYSPSRYSYQLLQCDSPRTESQSLLQQSSSPFRGHPTQSPGYSYRTTALRPGNPPSHGSSESSLSSTSYSSPAHPVSTDSLAPFTGTPGYFSSQPHSGNSTGSNLPRRSCPSSAASPTLQGPSDSPTSDSVSQSSTGTLSSTSFPQNSRSSLPSDLRTISLPSAGQSAVYQASRVSAVSNSQHYPHRGSGGVHQYRLQPLQGSGVKTQTGLS

Variants of: B1
Experiment: NanoLuc complementation assay; n = 6–7 independent transfections per TBLR1 mutant; read off a plot

Variant | ratio to parent
chain 1 MSISSDEVNFLVYRYLQESGFSHSAFTFGIESHISQSNINGALVPPAALISIIQKGLQYVEAEVSINEDGTLFDGRPIESLSLIDAVMPDVVQTRQQAYRDKLAQQQAAAAAAAAAAASQQGSAKNGENTANGEENGAHTIANNHTDMMEVDGDVEIPPNKAVVLRGHESEVFICAWNPVSDLLASGSGDSTARIWNLSENSTSGSTQLVLRHCIREGGQDVPSNKDVTSLDWNSEGTLLATGSCDGFARIWTKDGNLASTLGQHKGPIFALKWNKKGNFILSAGVDKTTIIWDAHTGEAKQQFPFHSAPALDVDWQSNNTFASCSTDMCIHVCKLGQDRPIKTFQGHTNEVNAIKWDPTGNLLASCSDDMTLKIWSMKQDNCVHDLQAHNKEIYTIKWSPTGPGTNNPNANLMLASASFDSTVRLWDVDRGICIHTLTKHQEPVYSVAFSPDGRYLASGSFDKCVHIWNTQTGALVHSYRGTGGIFEVCWNAAGDKVGASASDGSVCVLDLRK [chain 1 Y245C] | ~1.2
chain 1 MSISSDEVNFLVYRYLQESGFSHSAFTFGIESHISQSNINGALVPPAALISIIQKGLQYVEAEVSINEDGTLFDGRPIESLSLIDAVMPDVVQTRQQAYRDKLAQQQAAAAAAAAAAASQQGSAKNGENTANGEENGAHTIANNHTDMMEVDGDVEIPPNKAVVLRGHESEVFICAWNPVSDLLASGSGDSTARIWNLSENSTSGSTQLVLRHCIREGGQDVPSNKDVTSLDWNSEGTLLATGSYDGFARIWTKDGNLASTLGQHKGPIFALKWNKKGNFILSAGVDKTTIIWDAHTGEAKQQFPFHSAPALDVDWQSNNTFASCSTDMCIHVCKLGQDRPIKTFQGHTNEVNAIKWDPTGNLLASCSDNMTLKIWSMKQDNCVHDLQAHNKEIYTIKWSPTGPGTNNPNANLMLASASFDSTVRLWDVDRGICIHTLTKHQEPVYSVAFSPDGRYLASGSFDKCVHIWNTQTGALVHSYRGTGGIFEVCWNAAGDKVGASASDGSVCVLDLRK [chain 1 D370N] | ~0.05
chain 1 MSISSDEVNFLVYRYLQESGFSHSAFTFGIESHISQSNINGALVPPAALISIIQKGLQYVEAEVSINEDGTLFDGRPIESLSLIDAVMPDVVQTRQQAYRDKLAQQQAAAAAAAAAAASQQGSAKNGENTANGEENGAHTIANNHTDMMEVDGDVEIPPNKAVVLRGHESEVFICAWNPVSDLLASGSGDSTARIWNLSENSTSGSTQLVLRHCIREGGQDVPSNKDVTSLDWNSEGTLLATGSYDGFARIWTKDGNLASTLGQHKGPIFALKWNKKGNFILSAGVDKTTIIWDAHTGEAKQQFPFHSAPALDVDWQSNNTFASCSTDMCIHVCKLGQDRPIKTFQGHTNEVNAIKWDPTGNLLASCSDDMTLKIWSMKQDNCVHDLQAHNKEIYTIKWSPTGPGTNNPNANLMLASASFDSTVRLWDVDRGICIHTLTKHQEPVYSVAFSPDGRYLASDSFDKCVHIWNTQTGALVHSYRGTGGIFEVCWNAAGDKVGASASDGSVCVLDLRK [chain 1 G460D] | ~0.07
chain 1 MSISSDEVNFLVYRYLQESGFSHSAFTFGIESHISQSNINGALVPPAALISIIQKGLQYVEAEVSINEDGTLFDGRPIESLSLIDAVMPDVVQTRQQAYRDKLAQQQAAAAAAAAAAASQQGSAKNGENTANGEENGAHTIANNHTDMMEVDGDVEIPPNKAVVLRGHESEVFICAWNPVSDLLASGSGDSTARIWNLSENSTSGSTQLVLRHCIREGGQDVPSNKDVTSLDWNSEGTLLATGSYDGFARIWTKDGNLASTLGQHKGPIFALKWNKKGNFIPSAGVDKTTIIWDAHTGEAKQQFPFHSAPALDVDWQSNNTFASCSTDMCIHVCKLGQDRPIKTFQGHTNEVNAIKWDPTGNLLASCSDDMTLKIWSMKQDNCVHDLQAHNKEIYTIKWSPTGPGTNNPNANLMLASASFDSTVRLWDVDRGICIHTLTKHQEPVYSVAFSPDGRYLASGSFDKCVHIWNTQTGALVHSYRGTGGIFEVCWNAAGDKVGASASDGSVCVLDLRK [chain 1 L282P] | ~0.05
chain 1 MSISSDEVNFLVYRYLQESGFSHSAFTFGIESHISQSNINGALVPPAALISIIQKGLQYVEAEVSINEDGTLFDGRPIESLSLIDAVMPDVVQTRQQAYRDKLAQQQAAAAAAAAAAASQQGSAKNGENTANGEENGAHTIANNHTDMMEVDGDVEIPPNKAVVLRGHESEVFICAWNPVSDLLASGSGDSTARIWNLSENSTSGSTQLVLRHCIREGGQDVPSNKDVTSLDWNSEGTLLATGSYDGFARIWTKDGNLASTLGQHKGPIFALKWNKKGNFILSAGVDKTTIIWDAHTGEAKQQFPFHSAPALDVDWQSNNTFASCSTDMCIHVCKLGQDRPIKTFQGHTNEVNAIKWDPTGNLLASCSEDMTLKIWSMKQDNCVHDLQAHNKEIYTIKWSPTGPGTNNPNANLMLASASFDSTVRLWDVDRGICIHTLTKHQEPVYSVAFSPDGRYLASGSFDKCVHIWNTQTGALVHSYRGTGGIFEVCWNAAGDKVGASASDGSVCVLDLRK [chain 1 D369E] | ~0.15

Variants of: B1
Experiment: co-immunoprecipitation, mass spectrometry; TBLR1-null Flp-In T-REx 293 cells; n = 3 independent transfections; read off a plot

Variant | screen value
chain 1 MSISSDEVNFLVYRYLQESGFSHSAFTFGIESHISQSNINGALVPPAALISIIQKGLQYVEAEVSINEDGTLFDGRPIESLSLIDAVMPDVVQTRQQAYRDKLAQQQAAAAAAAAAAASQQGSAKNGENTANGEENGAHTIANNHTDMMEVDGDVEIPPNKAVVLRGHESEVFICAWNPVSDLLASGSGDSTARIWNLSENSTSGSTQLVLRHCIREGGQDVPSNKDVTSLDWNSEGTLLATGSYDGFARIWTKDGNLASTLGQHKGPIFALKWNKKGNFILSAGVDKTTIIWDAHTGEAKQQFPFHSAPALDVDWQSNNTFASCSTDMCIHVCKLGQDRPIKTFQGHTNEVNAIKWDPTGNLLASCSDNMTLKIWSMKQDNCVHDLQAHNKEIYTIKWSPTGPGTNNPNANLMLASASFDSTVRLWDVDRGICIHTLTKHQEPVYSVAFSPDGRYLASGSFDKCVHIWNTQTGALVHSYRGTGGIFEVCWNAAGDKVGASASDGSVCVLDLRK [chain 1 D370N] | ~6.9 log2
